# ± gives the standard deviation of the averaged measurements.
# Experiment: total protein half-life in vivo (active degradation + dilution); higher = more stable protein
# [1] = E. coli NCM3722 delta-clpP delta-lon delta-hslV, growth: N-lim chemostat, doubling time 6 h
# [2] = E. coli NCM3722 delta-clpP, growth: N-lim chemostat, doubling time 6 h
# [3] = E. coli NCM3722 delta-hslV, growth: N-lim chemostat, doubling time 6 h
# [4] = E. coli NCM3722 delta-lon, growth: N-lim chemostat, doubling time 6 h
# [5] = E. coli NCM3722 delta-smpB, growth: N-lim chemostat, doubling time 6 h
# [6] = wild type E. coli NCM3722, growth: C-lim chemostat, doubling time 3 h
# [7] = wild type E. coli NCM3722, growth: C-lim chemostat, doubling time 6 h
# [8] = wild type E. coli NCM3722, growth: C-lim chemostat, doubling time 12 h
# [9] = wild type E. coli NCM3722, growth: N-lim chemostat, doubling time 6 h
# [10] = wild type E. coli NCM3722, growth: N-lim chemostat, doubling time 12 h
# [11] = wild type E. coli NCM3722, growth: P-lim chemostat, doubling time 6 h
# [12] = wild type E. coli NCM3722, growth: P-lim chemostat, doubling time 12 h
Sequence,total protein half-life in vivo [1] [h],total protein half-life in vivo [2] [h],total protein half-life in vivo [3] [h],total protein half-life in vivo [4] [h],total protein half-life in vivo [5] [h],total protein half-life in vivo [6] [h],total protein half-life in vivo [7] [h],total protein half-life in vivo [8] [h],total protein half-life in vivo [9] [h],total protein half-life in vivo [10] [h],total protein half-life in vivo [11] [h],total protein half-life in vivo [12] [h]
MNIQCKRVYDPAEQSDGYRILVDRLWPRGIKKTDLALDEWDKEITPSTELRKAFHGEVVDYATFREQYLAELAQHEQEGKRLADIAKKQPLTLLYSAKNTTQNHALVLADWLRSL,6.74 ± 1.5,5.27,3.16 ± 0.34,4.88 ± 0.48,3.51 ± 0.47,2.37 ± 0.59,4.57,4.54 ± 0.79,3.27,4.71,3.11,5.24 ± 1.4
MFENITAAPADPILGLADLFRADERPGKINLGIGVYKDETGKTPVLTSVKKAEQYLLENETTKNYLGIDGIPEFGRCTQELLFGKGSALINDKRARTAQTPGGTGALRVAADFLAKNTSVKRVWVSNPSWPNHKSVFNSAGLEVREYAYYDAENHTLDFDALINSLNEAQAGDVVLFHGCCHNPTGIDPTLEQWQTLAQLSVEKGWLPLFDFAYQGFARGLEEDAEGLRAFAAMHKELIVASSYSKNFGLYNERVGACTLVAADSETVDRAFSQMKAAIRANYSNPPAHGASVVATILSNDALRAIWEQELTDMRQRIQRMRQLFVNTLQEKGANRDFSFIIKQNGMFSFSGLTKEQVLRLREEFGVYAVASGRVNVAGMTPDNMAPLCEAIVAVL,4.59 ± 0.58,4.02 ± 0.34,3.88 ± 0.059,4.44 ± 0.22,3.789 ± 0.034,3.16 ± 0.23,5.555 ± 0.041,10.29 ± 0.024,3.86 ± 0.14,5.97 ± 0.14,5.69 ± 0.19,11.84 ± 0.03
MMKTVNELIKDINSLTSHLHEKDFLLTWEQTPDELKQVLDVAAALKALRAENISTKVFNSGLGISVFRDNSTRTRFSYASALNLLGLAQQDLDEGKSQIAHGETVRETANMISFCADAIGIRDDMYLGAGNAYMREVGAALDDGYKQGVLPQRPALVNLQCDIDHPTQSMADLAWLREHFGSLENLKGKKIAMTWAYSPSYGKPLSVPQGIIGLMTRFGMDVTLAHPEGYDLIPDVVEVAKNNAKASGGSFRQVTSMEEAFKDADIVYPKSWAPYKVMEERTELLRANDHEGLKALEKQCLAQNAQHKDWHCTEEMMELTRDGEALYMHCLPADISGVSCKEGEVTEGVFEKYRIATYKEASWKPYIIAAMILSRKYAKPGALLEQLLKEAQERVK,4.89 ± 0.5,2.63,2.5 ± 0.084,3.03,2.82 ± 0.23,2.94 ± 0.24,4.89 ± 0.37,9.18 ± 0.49,2.53,3.87 ± 0.06,–,–
MDRDQTNSSLFNDDPVLHATWLYYQEGKSQTEVAAIMGVSRVTVVKYLQTARENGLVHINLDVNVFGSIDAALQIRDKFNLQRVIIVPDGEHAGKRDDTKLMRTRLSRAGGMYLNQVIENGDVLGVAWGRTIHQMSKTMTPKSCKNVTVIQMLGSMPSQPDLTIIESSSQIAYKLSGRVASLHVPAVVSSARLAMELQAEPIIRSNFDVLTRCTKAFFVVGNALDENPLIRVGVLNKKEMQTYRDLGAVGVICGRFYDKEGMPVVADVDQRILGISLAQLRQIERKIFLAGGERGYDATLGALLGGYVTDLIVDEGTAEFLLACELPH,7.27 ± 0.75,6.31 ± 0.21,6.85 ± 0.93,6.37 ± 0.93,5.92 ± 0.29,3.03 ± 0.26,6.27 ± 0.17,11.5 ± 2.3,5.82 ± 0.46,11.9 ± 0.26,5.93 ± 0.12,12 ± 0.53
MAFRMSEQPRTIKIYNLLAGTNEFIGEGDAYIPPHTGLPANSTDIAPPDIPAGFVAVFNSDESSWHLVEDHRGKTVYDVASGNALFISELGPLPENVTWLSPEGEFQKWNGTAWVKDTEAEKLFRIREAEETKNNLMQVASEHIAPLQDAADLEIATEEEISLLEAWKKYRVLLNRVDTSTAQDIEWPALP,3.03,2.56,1.99,–,1.99,1.9,2.42 ± 0.94,5.44,3.48,–,3.08,7.47 ± 0.83
MNNIWWQTKGQGNVHLVLLHGWGLNAEVWRCIDEELSSHFTLHLVDLPGFGRSRGFGALSLADMAEAVLQQAPDKAIWLGWSLGGLVASQIALTHPERVQALVTVASSPCFSARDEWPGIKPDVLAGFQQQLSDDFQRTVERFLALQTMGTETARQDARALKKTVLALPMPEVDVLNGGLEILKTVDLRQPLQNVSMPFLRLYGYLDGLVPRKVVPMLDKLWPHSESYIFAKAAHAPFISHPAEFCHLLVALKQRV,3.79 ± 0.6,3.5 ± 0.15,3.33,3.66 ± 0.1,4.85 ± 1.8,3.39 ± 0.45,5.41 ± 0.43,12.1 ± 4.7,3.63 ± 0.25,6.93 ± 1.4,5.93 ± 0.25,–
MKLRSVTYALFIAGLAAFSTSSLAAQSLRFGYETSQTDSQHIAAKKFNDLLQERTKGELKLKLFPDSTLGNAQAMISGVRGGTIDMEMSGSNNFAGLSPVMNLLDVPFLFRDTAHAHKTLDGKVGDDLKASLEGKGLKVLAYWENGWRDVTNSRAPVKTPADLKGLKIRTNNSPMNIAAFKVFGANPIPMPFAEVYTGLETRTIDAQEHPINVVWSAKFFEVQKFLSLTHHAYSPLLVVINKAKFDGLSPEFQQALVSSAQEAGNYQRKLVAEDQQKIIDGMKEAGVEVITDLDRKAFSDALGNQVRDMFVKDVPQGADLLKAVDEVQ,4.65,–,–,–,–,3.23 ± 0.18,6.69 ± 0.32,9.23 ± 0.3,–,–,–,–

# Reference: the supplement of paper PMC11246515
